By EC50 is commonly meant the concentration needed to bring the measured effect to its halfway point. High values mean a less potent agent, low ones a more potent agent.

We go through 1 substance from patent US20160130327A1.

Experiment [1] deals with revertant virus (AD169 CMV with the pentameric gH complex restored). The experiment can be described thus: cell-based or functional assay.
Experiment [2] has the same target. The experiment can be described thus: antibody-titration EIA, coated revertant virions.

“human polyclonal CMV hyperimmune IgG (HIG, CytoGam) (antibody)” returned an EC50 neutralizing (ARPE-19 cells) in experiment [1] of 1 µg/mL. In addition, the EC50 in experiment [2] came to 2 µg/mL.
